Columns and labels:
[1] = SEC; GNL-purified Env from 293F supernatant on a Superdex 200 Increase 10/300 GL column; profile decomposed into aggregates, trimer and dimer/monomer fractions (UNICORN)
[2] = target: BG505 UFO trimer (HIV-1); test: negative-stain EM; purified Env proteins at 0.05 mg/ml, 2% uranyl acetate, reference-free 2D class averages
[3] = target: BG505 UFO trimer (HIV-1); test: native gel or EMSA
[4] = target: CNE5 chimeric UFO trimer with CNE6 gp41_(ECTO) (HIV-1); test: negative-stain EM; purified Env proteins at 0.05 mg/ml, 2% uranyl acetate, reference-free 2D class averages
[5] = target: CNE6 UFO trimer (HIV-1); test: as above
[6] = target: CNE6 UFO trimer (HIV-1); test: native gel or EMSA
[7] = target: CNE107 chimeric UFO trimer with CNE6 gp41_(ECTO) (HIV-1); test: negative-stain EM; purified Env proteins at 0.05 mg/ml, 2% uranyl acetate, reference-free 2D class averages
[8] = target: MG11 chimeric UFO trimer with CNE6 gp41_(ECTO) (HIV-1); test: as above
[9] = target: MG13 UFO trimer (HIV-1); test: as above
[10] = target: MG13 UFO trimer (HIV-1); test: native gel or EMSA

BG505 UFO trimer
trimer content (% of the SEC profile) [1]: a rate of proper trimer folding of about 75.5%

BG505 UFO trimer (domain or fragment)
stoichiometry N [2]: 3 | stoichiometry N [3]: 3

CNE5 chimeric UFO trimer with CNE6 gp41_(ECTO) (domain or fragment)
stoichiometry N [4]: 3

CNE6 SOSIP trimer
trimer content (% of the SEC profile) [1]: 21.3% for the SOSIP construct

CNE6 UFO trimer
trimer content (% of the SEC profile) [1]: as high as 70.1% for CNE6

CNE6 UFO trimer (domain or fragment)
stoichiometry N [5]: 3 | stoichiometry N [6]: 3

CNE107 chimeric UFO trimer with CNE6 gp41_(ECTO) (domain or fragment)
stoichiometry N [7]: 3

MG11 chimeric UFO trimer with CNE6 gp41_(ECTO) (domain or fragment)
stoichiometry N [8]: 3

MG13 UFO trimer
trimer content (% of the SEC profile) [1]: 85.6% for MG13

MG13 UFO trimer (domain or fragment)
stoichiometry N [9]: 3 | stoichiometry N [10]: 3

Source: article PMC7178897
